# Values quoted from earlier work as cited in article PMC8920573.
# Target: SARS-CoV main protease main protease (Severe acute respiratory syndrome coronavirus) (UniProt P0C6X7)
substance,measurement,value
SARS-CoV main protease main protease (from UniProt P0C6X7),Kd,2.5 µM
